The source of these data is the DeepSol protein solubility set.

The nature of the series: soluble on expression in E. coli; label from the status in PepcDB or PDB records.
In the case of “IEAENHKVTDKIKNAQPFLVDVVPAKSVIPELNDDAQKTLLHAGPPIQWSEMTGPMKGACIGAALFERWADNEEDALKIFEAGEVRFIPCHHVKAVGPMGGITSGNMPVFVVENRLEGNEAYCILNEGIGKVLRFGAYSQEVVDRLDWIKDVLGPTIAKALKLSEEGLNLNVLIARSITMGDEFHQRNIAASLNFLKELSPLIIKTDIPEDQKYEVIKFLADTDQFFLNVMMATGKAIVDGARKDTNGTIVTTMTRNGVNFGVRIAETGDQWHTAPVNTPKGLYFTGFSEEDGNPDVGDSAITETVGVGAMAMVAAPGVTRFVGAGGFEDALATSNEMAKICEGNNPTFSIPTWDFQGTCLGIDIRKVVELGITPIINTGIAHKNAGVGQIGAGTVRAPLGCFEKALEAYAEKLGITVE”, the “soluble on expression in E. coli” value is recorded as “not soluble”.

Take “IEERMNEYFNWLKQNYIFKELDSSTEITTPFKNHLNDFIRIYADTLPNNEICLSDDGLTINELEMLGIDINTKTRTKLIQNILNQFNLKLVDKEITADVKNESFAQSKHNLIQGILKIYDLTLTTKSNVTNIFYEEVFEFLYDQKIRGLAQVSVSGESGLKYSIDYIVSETKSQPEKLVNFTNNLDFNKITNEAYIYRDIKPNRPSRNKLEPIMLIIVNDVDHPINERAQTVAEHENLEILKWSNKSKIIETL”: the “soluble on expression in E. coli” value is listed as “not soluble”.

For “IEGIPVYLLDKESGPFSFFHWIFIYPQAHPQNELSEILTHEGTHARQRHSIDVIISELMCIACWFNPFMWLMKREVRNNLEYMADNRVLEAGHDSKSYQYHLLGLAHQKSAITLSNSFNVLPLKNRITMM”, the “soluble on expression in E. coli” value was “not soluble”.

Take “IEYETHFFNEVTYLVDYLKVKALMMIPKNKKDIKRIVIYLRGGKGQVGRVRAARLMQFANEYTLVIGPYYRGNNGSEGRDEFYRGDLNDVTHLIRLLNQNYPSAFIHMVGFSRGGLQGLLTFNDLPVDSYMIWGGVSDIHLMYEERVDLRGMLRRMVGHPKKDAKAYKSRDAMQFIKKDSPPILIIHGGKDIQVGIHQAYDLEKKLKSKGIYYQTYYQLDEGHVPRPPAMRDVIRYIHQWMNNVENKN”: the “soluble on expression in E. coli” value is on record as “not soluble”.

With “IGDWGYSVSANLTTIKNKVKSLVQDGYSIIAGDKQQSYTMAGYPIGFFYGYKVAGVYQSQADIDASPENTLATVTPGDLKFADVNRDGKITPEDRTMIGNPTPDFTYGLSLGVNYKNWSLGIDMMGQHGNEIFRTWDNYNFAQFNYLSQRMDRWHGEGTSNSQPLLNSKHSINNLNSEYYIEDGSFFRIRNVQLAYSFDKALLAKIRLQALKVYVNIQNLKTWKHNTGYTPELGGSATTFGVDDGSYPVPAVYTFGINLTF”, the “soluble on expression in E. coli” value was “not soluble”.

As for “IGKEKAEVELLQVDPELQAEIIATHNIALQAAVQVEEKKAREAATEAVKEVVIGEYEARYAEHEEYDRIMRDVAEILEQMEHAEVRRLITEDKIRPDGRRVDEIRP”, the “soluble on expression in E. coli” value is “not soluble”.

As for “IIGGNEVTPHSRPYMVLLSLDRKTICAGALIAKDWVLTAAHCNLNKRSQVILGAHSITREEPTKQIMLVKKEFPYPCYDPATREGDLKLLQLTEKAKINKYVTILHLPKKGDDVKPGTMCQVAGWGRTHNSASWSDTLREVNITIIDRKVCNDRNHYNFNPVIGMNMVCAGSLRGGRDSCNGDSGSPLLCEGVFRGVTSFGLENKCGDPRGPGVYILLSKKHLNWIIMTIKGAV”, the “soluble on expression in E. coli” value is listed as “soluble”.

On to “IIHEVQKEEACGNLTLQHHMLEPVQRIPRYELLLKDYLLKLPHGSPDSKDAQKSLELIATAAEHSNAAIRKMERMHKLLKVYELLGGEEDIVSPTKELIKEGHILKLSAKNGTTQDRYLILFNDRLLYCVPRLRLLGQKFSVRARIDVDGMELKESSNLNLPRTFLVSGKQRSLELQARTEEEKKDWVQAINSTLLKHEQTLETFKLLNSTNREDEDTPPNSPNVDLGKRAPTPIREKEVTMCMRCQEPFNSITKRRHHCKACGHVVCGKCSEFRARLVYDNNRSNRVCTDCYVALHGVPGSSPACSQHTPQRRRSILEKQASVAAENSVICSFLHYMEKGGKGWHKAWFVVPENEPLVLYIYGAPQDVKAQRSLPLIGFEVGPPEAGERPDRRHVFKITQSHLSWYFSPETEELQRRWMAVLGRAGRGDTFCPGPTLSEDREMEEAPVAALGATAEPPESPQTRDKT”, for which the “soluble on expression in E. coli” value is “soluble”.

On to “IKVILITGMPGSGKSEFAKLLKERGAKVIVMSDVVRKRYSIEAKPGERLMDFAKRLREIYGDGVVARLCVEELGTSNHDLVVFDGVRSLAEVEEFKRLLGDSVYIVAVHSPPKIRYKRMIERLRSDDSKEISELIRRDREELKLGIGEVIAMADYIITNDSNYEEFKRRCEEVTDRVLK”, for which the “soluble on expression in E. coli” value was “soluble”.

In the case of “IPGKDVAVTAGRVVFQNHLIELIQYEAQTKTVYKEPILILPAWIMKYYILDLSPHNSLVKWLVKQGHTVFIISWRNPDKEDCDLGMDDYYRLGAMAAIDMVSTILPETKINLMGYCLGGTLAMITASMMGRYEDERLNCLTLLAAQGDFSEAGELMLFVNESQVDFLKSMMWEQGYLDTKQMAGSFQMLRAYDLIWSKMVQDYMHGMRRGMIDLTAWNADATRMPYKMHSEYLEKLFLNNDFAEGRYMVEGKSVAAENIQCPIFAVSTKKDHVAPWQSVYKIHLMTEENVTFVLTGGGHN”, the “soluble on expression in E. coli” value is on record as “not soluble”.

Regarding “IPLARTVRCNCIHIDDGPVRMRAIGKLEIIPASLSCPRVEIIATMKKNDEQRCLNPESKTIKNLMKAF”, the “soluble on expression in E. coli” value was “soluble”.

Consider “ISASEDMFEDEDLIPRQNVVITLTHHGYIKRLPISTYRSQKRGGRGIQGMGTNEDDFVQHLFTTNSHHTILFFTNKGKVYRLKGYEIPELGRTAKGIPIINLLQIEQDEYISTIIPIEEFTED”, for which the “soluble on expression in E. coli” value is listed as “soluble”.

On to “ISGQKEFEEKPLESKEKYQDLFNLIEQAVQIGEIVFDENGRSIDNIILDVNLAYEKHSGLRREQVIGRGFKEIFPIVEQRWLDRYGEVVRTGMGMHFEEYNASLDRWFEVFASPMGSNRFIAVFSDIT”, for which the “soluble on expression in E. coli” value is reported as “not soluble”.

For the sequence “ITLKVAIYPYVPDPARFQAAVLDQWQRQEPGVKLEFTDWDSYSADPPDDLDVFVLDSIFLSHFVDAGYLLPFGSQDIDQAEDVLPFALQGAKRNGEVYGLPQILCTNLLFYRKGDLKIGQVDNIYELYKKIGTSHSEQIPPPQNKGLLINMAGGTTKASMYLEALIDVTGQYTEYDLLPPLDPLNDKVIRGLRLLINMAGEKPSQYVPEDGDAYVRASWFAQGSGRAFIGYSESMMRMGDYAEQVRFKPISSSAGQDIPLFYSDVVSVNSKTAHPELAKKLANVMASADTVEQALRPQADGQYPQYLLPARHQVYEALMQDYPIYSELAQIVNKPSNRVFRLGPEVRTWLKDAKQVLPEALGLTDVSSLAS”, the “soluble on expression in E. coli” value is listed as “soluble”.

Consider “IVRACRFMAERQIGALIVIERQQNIEDLIEGCIYLDAYITAELIITIFYPLTPLHDGAVVIRDDRIAFASCVLPLSKNPELPKKYGTRHRAAVGITEMSDAVAIVVSEETGEISVAVEGNI”, for which the “soluble on expression in E. coli” value is “soluble”.

As for “KAFLEDMKKYAETFLEPWFKAPNKGTFQIVYKSRNNSHVNREEVIRELAGIVCTLNSENKVDLTNPQYTVVVEIIKAVCCLSVVK”, the “soluble on expression in E. coli” value is “soluble”.

Regarding “KARGNVGFVAGSSYGTGSVWTRNNEVVVLTASHVVGRANMATLKIGDAMLTLTFKKNGDFAEAVTTQSELPGNWPQLHFAQPTTGPASWCTATGDEEGLLSGEVCLAWTTSGDSGSAVVQGDAVVGVHTGSNTSGVAYVTTPSGKLLGADTVTLSSLSKHFTGPLTSIPKDIPDNIIADVDAVPRSLAMLIDGLSNRE”, the “soluble on expression in E. coli” value is on record as “soluble”.

Turning to “KDFTWNTGVTYSMNKNKILTLADNAINPITREKFSISSLNMGGLGSTRFILKEGGSMGDIYSLMDLKRDANGAVYIDENNSVVTESLEANNYIKLGSVLPKGNLAWRNNFSWKNINVAFLVSARLGGVVFSRTQAVLDNFGVSEASAAARDKGYVSVNGNDRVNPEGWYSVVAGGTAVPQYYIYSATNIRLQEASIGYTIPRKWLGNVCDIKVSLIGRNLWMIYNKAPFDPESVASTDNFYQGIDYFMMPSLRNIGFNLSFKF”, the “soluble on expression in E. coli” value was “not soluble”.

With “KDLKIVMLTDIHLGKNLHENFLDKLITKVNLQSPDMVVIVGDLIDTNPKDLKNYISKLNDFNSTYGTFYALGNHEYYHGINEVLDLLRKHTNMKILVNQNLDLGFIDIAGLGDLAGLDRGLYAPDLARIKVDLNTSKASILLTHQPKTALLYDLSDFDLVLSGHTHGGQIFPFMFLV”, the “soluble on expression in E. coli” value is “not soluble”.

Regarding “KEAMRMLMREELEKVLKTLSPREAMVLRMRYGLLDGKPKTLEEVGQYFNVTRERIRQIEVKALRKLRHPSRSKYLKSLLSLMDENEG”, the “soluble on expression in E. coli” value was “soluble”.

For the sequence “KFSPEFGIFMNIGASKIFTKTEVDQNEYSYLVDFRTIKGDIFLDFEAIFQLGVKNNINNNIVTGLTSLLEIGYSPYIISTKYEGESDSIYYIFTDRVILYSLVLGALEKIVFNNFSIGIGAGVLFPISGFAASNHPRNIISVMPSENLSIISPYNSKLDYAYIKKLFKVPVAPYIKITAEYAFKPYKIDNAEMDFVLGAYLSYNFGMQYDVSVLNSNIPKQGDNGLIIPGISSKDMFYKYDYSNLDFGVTFGVSFRALE”, the “soluble on expression in E. coli” value is “not soluble”.

“KGGVWRNTEDEILKAAVMKYGKNQWSRIASLLHRKSAKQCKARWYEWLDPSIKKTEW”: the “soluble on expression in E. coli” value is on record as “soluble”.

Regarding “KINDFSIKHGLTEKFVVSFAGTLGFSQDMEVIIRAANELKEYKDIVFIIVGNGVRLEESKKLAESLNLQNIRFIPSVPREIYPLVLHSSDVSLATLTKDVKTPVVPSKILSIMSAGIPVIAVMNLEGDAPKLVEKANAGFAIPAGDYKSLAEKILLLYKNPELRESLGRNGRRY”, the “soluble on expression in E. coli” value is “not soluble”.

For the sequence “KKGYEVLRDPHLNKGMAFTLEERQQLNIHGLLPPCFLGQDAQVYSILKNFERLTSDLDRYILLMSLQDRNEKLFYKVLTSDIERFMPIVYTPTVGLACQHYGLAFRRPRGLFITIHDRGHIATMLQSWPESVIKAIVVTDGERILGLGDLGCYGMGIPVGKLALYTACGGVKPHQCLPVMLDVGTDNETLLKDPLYIGLRHKRIRGQAYDDLLDEFMEAVTSRYGMNCLIQFEDFANANAFRLLHKYRNKYCTFNDDIQGTASVAVAGLLAALRITKNRLSDHTVLFQGAGEAALGIANLIVMAMQKEGVSKEEAIKRIWMVDSKGLIVKGRASLTPEKEHFAHEHCEMKNLEDIVKDIKPTVLIGVAAIGGAFTQQILQDMAAFNKRPIIFALSNPTSKAECTAEQLYKYTEGRGIFASGSPFDPVTLPSGQTLYPGQGNNSYVFPGVALGVISCGLKHIGDDVFLTTAEVIAQEVSEENLQEGRLYPPLVTIQQVSLKIAVRIAKEAYRNNTASTYPQPEDLEAFIRSQVYSTDYNCFVADSYTWPEEAMKVK”, the “soluble on expression in E. coli” value is recorded as “soluble”.

“KKLDLLITGVGGQGAILASDIIGKAAVISGIPIRAAETHGMAQRGGSVVNHIRLGSDLGSMIPKKGADIMLALEPMEAVRYLDFLKDGGVIIVNTQSIIPVTVTSGLSKYPEVQEILDALSEKYVVKAFNADELAHEAGSRLAMNVAMVGAVSGYLPISKEVLLESVKVLVPKKTIEINIRAFEMGREEVEE”: the “soluble on expression in E. coli” value is reported as “not soluble”.

Regarding “KKLKKIVNSYINLGFEVTTKRETIQIDDLVPTQATVYEDELYGRAYELKRGLAEPIIVIKTNNNEKYILVDGHHRAVAACLSDIKELEAHVLEIDTDKKMGIEKTAEKQGLKSLSDIKILDEDKMNCSSAYKLKANILEM”, the “soluble on expression in E. coli” value is “not soluble”.

As to “KLTKSDLDILNSMKNVVDGIARMYGEHTEVVLHSLDAEAPEIIKIANGHVTERSEGAPITNLARMKLREGKDVSDSYLTKTSNGKTLHSITTIVRNPKNKPIGLLCINVDMDAPMQAFLKAMLPQQHTECCVGGAR”, the “soluble on expression in E. coli” value was “not soluble”.
